Target: T1, SARS-CoV-2 spike receptor binding domain, monomeric (SARS-CoV-2, UniProt P0DTC2)
T1 construct: also called RBD; monomeric RBD
Assay: SPR
Settings: both partners purified

B1: CoVIC-259 (antibody, V domains shown)
VH: EVQLVESGGGVVQPGRSLRLSCAASGFTFSSYAMHWVRQAPGKGLEWVAVLSYDGSNKYNADSVKGRFTISRDNSKNTLYLQMNSLRVEDTAMYYCARDGVSVTMVRGVIGPLCDYWGQGTLVTVSS
VL: not shown
notes: also called RBD-1 community representative
  binding result: binds

— article PMC9302186, “Defining variant-resistant epitopes targeted by SARS-CoV-2 antibodies: A global consortium study” (Science (New York, N.y.), 2021)
